The values that follow come from patent US20070265201A1, “INHIBITORS OF IN[…] TRA[…] FROM HCMV PROTEIN IE2” (priority 2005, published 2007).

The assay addresses Spi-1 transcription factor, expressed in cells. Description: cell-based or functional assay.

For “IE2 291-364 expressed in cells from pCDNA 3.1/V5-His IE2 291-364 (peptide)”, the inhibition of IL-1β promoter luciferase reporter in LPS-treated RAW 264.7 cells amounted to 50% and the maximum inhibition of the 3.8 kbp complete IL1B regulatory region luciferase reporter in LPS-treated RAW264.7 cells is 50 to 75%.
